In patent publication US20220175916A1, “METHODS AND COMPOSITIONS FOR TREATING CHRONIC EFFECTS OF RADIATION AND CHEMICAL EXPOSURE” (priority 2018, published 2022):

Key:
[1] = system: transgenic mouse model p16-3MR; conditions: cited from earlier work; for Induction of senescence in vivo: keratinocytes, endothelial cells, fibroblasts and smooth muscle cells; for p16INK4a expression in the skin: mice administered the agent
[2] = system: murine embryonic fibroblasts, murine dermal fibroblasts and human dermal fibroblasts; conditions: fibroblasts treated in vitro; cited from earlier work
[3] = system: human histiocytic lymphoma U937 cell line; test: Senescence-associated β-galactosidase assay by fluorescent microscope imaging; type: cell-based
Protocol: Cells from the human histiocytic lymphoma U937 cell line were treated with doxorubicin, a chemotherapeutic agent, to induce senescence. Cells were treated with 0 μM, 0.01 μM, 0.1 μM or 1 μM doxorubicin for 3 days, or were treated with 0 μM, 0.1 μM or 1 μM doxorubicin for 6 days. Senescence was measured with a senescence-associated β-galactosidase assay by fluorescent microscope imaging.

[4] = system: transgenic mouse model p16-3MR; conditions: cited from earlier work; for Effect of elimination of senescent cells on running activity and strength: after doxorubicin or paclitaxel
[5] = system: transgenic mouse model p16-3MR; conditions: cited from earlier work
[6] = target: carboxymethyl lysine conjugated to keyhole limpet hemocyanin (CML-KLH); test: direct ELISA, CML-KLH coat 1 ug/mL, antibody at 0.62 ug/mL
[7] = target: carboxymethyl lysine conjugated to keyhole limpet hemocyanin (CML-KLH); test: direct ELISA, CML-KLH coat 1 ug/mL, antibody at 0.21 ug/mL
[8] = target: carboxymethyl lysine conjugated to keyhole limpet hemocyanin (CML-KLH); test: direct ELISA, CML-KLH coat 1 ug/mL, antibody at 0.07 ug/mL
[9] = target: carboxymethyl lysine conjugated to keyhole limpet hemocyanin (CML-KLH); test: direct ELISA, CML-KLH coat 1 ug/mL, antibody at 16.67 ug/mL
[10] = target: carboxymethyl lysine conjugated to keyhole limpet hemocyanin (CML-KLH); test: direct ELISA, CML-KLH coat 1 ug/mL, antibody at 5.56 ug/mL
[11] = target: carboxymethyl lysine conjugated to keyhole limpet hemocyanin (CML-KLH); test: direct ELISA, CML-KLH coat 1 ug/mL, antibody at 0 ug/mL (buffer control, background)
[12] = target: carboxymethyl lysine conjugated to keyhole limpet hemocyanin (CML-KLH); test: direct ELISA, CML-KLH coat 1 ug/mL, antibody at 1.85 ug/mL
[13] = target: carboxymethyl lysine conjugated to keyhole limpet hemocyanin (CML-KLH); test: direct ELISA, CML-KLH coat 1 ug/mL, antibody at 50 ug/mL
[14] = system: breast cancer cells (MMTV-PyMT); conditions: cited from earlier work
[15] = system: CML-KLH; test: Direct binding ELISA, CML-KLH coat; conditions: for OD450 absorbance: CML-KLH Coat
Excerpt: (§1) The binding of the murine (parental) and chimeric anti-AGE antibodies described in Example 3 was investigated by a direct binding ELISA. An anti-carboxymethyl lysine (CML) antibody (R&D Systems, MAB3247) was used as a control. CML was conjugated to KLH (CML-KLH) and both CML and CML-KLH were coated overnight onto an ELISA plate. HRP-goat anti-mouse Fc was used to detect the control and murine (parental) anti-AGE antibodies. HRP-goat anti-human Fc was used to detect the chimeric anti-AGE antibody.
(§2) The antigens were diluted to 1 μg/mL in 1× phosphate buffer at pH 6.5. A 96-well microtiter ELISA plate was coated with 100 μL/well of the diluted antigen and let sit at 4° C. overnight. The plate was blocked with 1×PBS, 2.5% BSA and allowed to sit for 1-2 hours the next morning at room temperature. The antibody samples were prepared in serial dilutions with 1×PBS, 1% BSA with the starting concentration of 50 μg/mL. Secondary antibodies were diluted 1:5,000. 100 μL of the antibody dilutions was applied to each well. The plate was incubated at room temperature for 0.5-1 hour on a microplate shaker. The plate was washed 3 times with 1×PBS. 100 μL/well diluted HRP-conjugated goat anti-human Fc secondary antibody was applied to the wells. The plate was incubated for 1 hour on a microplate shaker. The plate was then washed 3 times with 1×PBS. 100 μL HRP substrate TMB was added to each well to develop the plate. After 3-5 minutes elapsed, the reaction was terminated by adding 100 μL of 1N HCl. A second direct binding ELISA was performed with only CML coating. The absorbance at OD450 was read using a microplate reader.
(§3) The OD450 absorbance raw data for the CML and CML-KLH ELISA is shown in the plate map below. 48 of the 96 wells in the well plate were used. Blank wells in the plate map indicate unused wells.

[16] = Direct binding ELISA, CML coat
Excerpt: as §1, §2, §3
The OD450 absorbance raw data for the CML-only ELISA is shown in the plate map below. 24 of the 96 wells in the well plate were used. Blank wells in the plate map indicate unused wells.

In the case of `N.N.[Cl][Pt][Cl]` [cisplatin], the “Induction of senescence in vivo” value [1] is given as “induced senescence in various cell types” and the “p16INK4a expression in the skin” value [1] is given as “elevated p^16INK4a expression in the skin”.

In the case of `COc1cccc2c1C(=O)c1c(O)c3c(c(O)c1C2=O)C[C@@](O)(C(=O)CO)C[C@@H]3O[C@H]1C[C@H](N)[C@H](O)[C@H](C)O1` [doxorubicin], the “Induction of cellular senescence (SA-β-gal, DNA synthesis, p16INK4a mRNA, SASP, p21, LaminB1)” value [2] is given as “symptoms of cellular senescence”, the “Induction of senescence in vivo” value [1] is given as “induced senescence in various cell types” and the “Cells that fluoresce (senescence-associated β-galactosidase)” value (from here on “Cells that fluoresce”) ([3]; 0.01 μM for 3 days) is given as “about 85%”. For the same molecule, the “Cells that fluoresce” value ([3]; 0.1 μM for 3 days) was “about 65%”, the “Cells that fluoresce” value ([3]; 0.1 μM for 6 days) was “about 85%” and the Cell death ([3]; 1 μM) was “significant cell death”. The “Cells that fluoresce” value ([3]; 1 μM for 3 days) was “about 60%”, the “Cells that fluoresce” value ([3]; 1 μM for 6 days) was “about 85%” and the “Concentration of peak senescence induction” value ([3]; treatment for 3-6 days) was 0.1 µM. The “Chemotherapy-induced fatigue and strength” value ([4]; running activity) was “chemotherapy-induced fatigue, as measured by running activity, and decline in strength” and the “Effect on SASP factor genes, HPC function and cardiac function” value ([5]; genetically engineered mice) was “increased expression of SASP factor genes associated with inflammation, reduction of hematopoietic progenitor cell (HPC) function and reduction in cardiac function”.

In the case of `CC1(C)CCC(c2ccc(Cl)cc2)=C(CN2CCN(c3ccc(C(=O)NS(=O)(=O)c4ccc(N[C@H](CCN5CCOCC5)CSc5ccccc5)c(S(=O)(=O)C(F)(F)F)c4)cc3)CC2)C1` [ABT-263], the “Effect of elimination of senescent cells on running activity and strength” value [4] is listed as “nearly reversed the decline in running activity and improved the loss of strength”.

With “carboxymethyl lysine MAb (Clone 318003), R&D Systems, catalog no. MAB3247 (antibody)” the OD450 [6] was 0.083 OD450, the OD450 [7] was 0.075 OD450 and the OD450 [8] was 0.086 OD450. For the same molecule, the OD450 [9] was 0.312 OD450, the OD450 [10] was 0.165 OD450 and the OD450 [11] was 0.09 OD450. For the same molecule, the OD450 [12] was 0.092 OD450 and the OD450 [13] was 0.462 OD450.

For `Nc1nc(O)c2ncn(COC(CO)CO)c2n1` [GCV, ganciclovir], the “Survival and cancer metastases vs doxorubicin followed by vehicle” value ([14]; doxorubicin followed by GCV) is listed as “increased survival and reduced cancer metastases”, the “Tumor growth, metastases and metastatic foci vs vehicle” value ([14]; surgical removal of palpable tumors prior to treatment) is listed as “smaller tumor growth, reduced cancer metastases and fewer metastatic foci” and the “Effect of elimination of senescent cells on running activity and strength” value [4] is listed as “nearly reversed the decline in running activity and improved the loss of strength”. The “Effect of elimination of senescent cells on inflammatory factors, HPCs and cardiac function” value ([5]; after doxorubicin) was “reduced circulating inflammatory factors, promoted the functional recovery of HPCs and prevented cardiac dysfunction”.

For `Cn1nnc2c(C(N)=O)ncn2c1=O` [temozolomide], the “Induction of senescence in vivo” value [1] is given as “induced senescence in various cell types” and the “p16INK4a expression in the skin” value [1] is given as “elevated p^16INK4a expression in the skin”.

In the case of `CC(=O)O[C@H]1C(=O)[C@@]2(C)[C@H]([C@H](OC(=O)c3ccccc3)[C@]3(O)C[C@H](OC(=O)[C@H](O)[C@@H](NC(=O)c4ccccc4)c4ccccc4)C(C)=C1C3(C)C)[C@]1(OC(C)=O)CO[C@@H]1C[C@@H]2O` [paclitaxel], the “Induction of cellular senescence (SA-β-gal, DNA synthesis, p16INK4a mRNA, SASP, p21, LaminB1)” value [2] is given as “symptoms of cellular senescence”.

B1: Parental Anti-AGE: murine anti-AGE IgG2b antibody, heavy chain DNA SEQ ID NO: 12, kappa light chain DNA SEQ ID NO: 14 (antibody)
heavy: MDPKGSLSWRILLFLSLAFELSYGQVQLLQPGAELVKPGASVKLACKASGYLFTTYWMHWLKQRPGQGLEWIGEISPTNGRAYYNARFKSEATLTVDKSSNTAYMQLSSLTSEASAVYYCARAYGNYEFAYWGQGTLVTVSVAKTTPPSVYPLAPGCGDTTGSSVTLGCLVKGYFPESVTVTWNSGSLSSSVHTFPALLQSGLYTMSSSVTVPSSTWPSQTVTCSVAHPASSTTVDKKLEPSGPISTINPCPPCKECHKCPAPNLEGGPSVFIFPPNIKDVLMISLTPKVTCVVVDVSEDDPDVQISWFVNNVEVHTAQTQTHREDYNSTIRVVSTLPIQHQDWMSGKEFKCKVNNKDLPSPIERTISKIKGLVRAPQVYILPPPAEQLSRKDVSLTCLVVGFNPGDISVEWTSNGHTEENYKDTAPVLDSDGSYFIYSKLNMKTSKWEKTDSFSCNVRHEGLKNYYLKKTISRSPG
light: METDTLLLWVLLLWVPGSTGDVVMTQTPLSLPVSLGDQASISCRSRQSLVNSNGNTFLQWYLQKPGQSPKLLIYKVSLRFSGVPDRFSGSGSGTDFTLKISRVEAEDLGLYFCSQSTHVPPTFGGGTKLEIKRADAAPTVSIFPPSSEQLTSGGASVVCFLNNFYPKDINVKWKIDGSERQNGVLNSWTDQDSKDSTYSMSSTLTLTKDEYERHNSYTCEATHKTSTSPIVKSFNRNEC
modifications: Murine anti-AGE IgG2b heavy chain; Murine anti-AGE Kappa light chain
B1 gave an OD450 absorbance ([15]; antibody 0.07 μg/mL) of 0.086, an OD450 absorbance ([15]; antibody 0.21 μg/mL) of 0.066 and an OD450 absorbance ([15]; antibody 0.62 μg/mL) of 0.072. The OD450 absorbance ([15]; antibody 1.85 μg/mL) was 0.063, the OD450 absorbance ([15]; antibody 5.56 μg/mL) was 0.063 and the OD450 absorbance ([15]; antibody 16.67 μg/mL) was 0.067. For the same molecule, the OD450 absorbance ([15]; antibody 50 μg/mL) was 0.092, the “Binding to CML-KLH (in words)” value ([15]; direct binding ELISA) was “very weak to no binding” and the OD450 absorbance ([16]; CML Coat (CML and CML-KLH ELISA), antibody 0.07 μg/mL) was 0.096. For the same molecule, the OD450 absorbance ([16]; CML Coat (CML and CML-KLH ELISA), antibody 0.21 μg/mL) was 0.096, the OD450 absorbance ([16]; CML Coat (CML and CML-KLH ELISA), antibody 0.62 μg/mL) was 0.085 and the OD450 absorbance ([16]; CML Coat (CML and CML-KLH ELISA), antibody 1.85 μg/mL) was 0.099. For the same molecule, the OD450 absorbance ([16]; CML Coat (CML and CML-KLH ELISA), antibody 5.56 μg/mL) was 0.115, the OD450 absorbance ([16]; CML Coat (CML and CML-KLH ELISA), antibody 16.67 μg/mL) was 0.13 and the OD450 absorbance ([16]; CML Coat (CML and CML-KLH ELISA), antibody 50 μg/mL) was 0.142. For the same molecule, the “Binding to CML (in words)” value ([16]; direct binding ELISA) was “very weak to no binding”, the OD450 absorbance ([16]; second, CML-only ELISA, antibody 0.068587 μg/mL) was 0.055 and the OD450 absorbance ([16]; second, CML-only ELISA, antibody 0.205761 μg/mL) was 0.056. The OD450 absorbance ([16]; second, CML-only ELISA, antibody 0.617284 μg/mL) was 0.103, the OD450 absorbance ([16]; second, CML-only ELISA, antibody 1.851852 μg/mL) was 0.078 and the OD450 absorbance ([16]; second, CML-only ELISA, antibody 5.555556 μg/mL) was 0.166. The OD450 absorbance ([16]; second, CML-only ELISA, antibody 16.66667 μg/mL) was 0.226 and the OD450 absorbance ([16]; second, CML-only ELISA, antibody 50 μg/mL) was 0.165.
